The nature of data set [1]: Brain uptake. The following applies: ISCP, 13.5-month-old female non-Tg vs 3xTg-AD mice; unpaired t-test.
Data set [2] has as its target INSRβ (Mus musculus, UniProt P15208). The data set can be described thus: Phosphorylation of INSRβ. The class given is in vivo. The following applies: 6-month-old C57Bl6 mice.

Sequence of INSRβ (P15208 28-746 limits assumed): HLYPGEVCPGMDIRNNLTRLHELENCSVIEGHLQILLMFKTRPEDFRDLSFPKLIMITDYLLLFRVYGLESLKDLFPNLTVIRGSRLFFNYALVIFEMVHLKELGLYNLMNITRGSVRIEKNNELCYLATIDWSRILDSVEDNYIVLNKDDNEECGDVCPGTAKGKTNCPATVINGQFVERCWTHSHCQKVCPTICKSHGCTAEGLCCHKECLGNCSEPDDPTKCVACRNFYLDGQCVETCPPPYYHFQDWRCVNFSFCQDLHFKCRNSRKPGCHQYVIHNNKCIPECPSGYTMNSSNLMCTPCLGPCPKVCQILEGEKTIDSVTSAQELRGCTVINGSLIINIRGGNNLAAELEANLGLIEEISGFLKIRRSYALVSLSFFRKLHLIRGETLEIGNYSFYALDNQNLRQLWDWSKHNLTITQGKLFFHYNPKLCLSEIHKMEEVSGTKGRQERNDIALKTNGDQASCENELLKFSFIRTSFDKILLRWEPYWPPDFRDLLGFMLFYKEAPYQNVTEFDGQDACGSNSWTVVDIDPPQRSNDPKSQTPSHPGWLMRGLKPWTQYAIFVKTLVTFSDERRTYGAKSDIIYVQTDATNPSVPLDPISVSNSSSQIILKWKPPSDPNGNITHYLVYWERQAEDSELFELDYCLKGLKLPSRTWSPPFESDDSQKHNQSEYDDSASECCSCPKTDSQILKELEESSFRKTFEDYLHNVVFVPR
Sequence of INSRβ (P15208 753-1372 limits assumed): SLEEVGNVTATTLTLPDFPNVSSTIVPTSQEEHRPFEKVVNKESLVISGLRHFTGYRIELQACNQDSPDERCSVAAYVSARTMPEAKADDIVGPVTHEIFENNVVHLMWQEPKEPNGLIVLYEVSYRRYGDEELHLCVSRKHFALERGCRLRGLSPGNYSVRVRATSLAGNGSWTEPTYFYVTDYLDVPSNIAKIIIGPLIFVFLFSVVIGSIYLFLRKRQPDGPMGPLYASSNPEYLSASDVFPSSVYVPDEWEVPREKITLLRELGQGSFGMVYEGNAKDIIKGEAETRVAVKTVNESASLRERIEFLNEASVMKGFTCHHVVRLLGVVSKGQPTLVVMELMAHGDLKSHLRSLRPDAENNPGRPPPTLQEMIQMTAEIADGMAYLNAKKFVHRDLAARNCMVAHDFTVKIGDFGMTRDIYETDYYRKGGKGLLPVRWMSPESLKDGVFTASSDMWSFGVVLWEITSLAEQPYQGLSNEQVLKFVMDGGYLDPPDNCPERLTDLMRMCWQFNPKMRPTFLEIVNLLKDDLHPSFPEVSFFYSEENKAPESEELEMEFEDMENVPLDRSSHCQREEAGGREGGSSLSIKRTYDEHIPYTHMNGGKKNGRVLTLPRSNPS

Regarding “125I-insulin: radiolabelled insulin used for transport quantification”, the “impact of 3xTg-AD transgenes on 125I-insulin transport” value in data set [1] is listed as “no significant impact”. As for insulin, in data set [2] (ISCP 120 s, insulin 350 nM, western blot), the “phosphorylation of INSRβ in microvessel-depleted parenchymal fraction” value is “no trace was detected”. In data set [2] (insulin 0.4 mg/kg or 350 nM, ISCP), the “time to INSRβ phosphorylation after intracarotid administration” value is not above 120 s.

Source of the values: publication PMC9897197 (Brain, 2022).
